Source: article PMC11876641, “Ephrin A1 functions as a ligand of EGFR to promote EMT and metastasis in gastric cancer” (The EMBO Journal, 2025)

Biological target: T1, EGFR protein (UniProt P00533 25-645)
T1 construct: EGFR; source: bought: R&D Systems (1095-ER)
Assay: pull-down; Fc fusion protein and its partner incubated in lysis buffer overnight at 4 °C; Protein A/G magnetic beads; both orientations (N-EGFR-Fc with Ephrin A1; Ephrin A1-Fc with EGFR protein)
Conditions: both partners purified

B1: Ephrin A1-Fc protein (Fc fusion, UniProt P20827 19-182, looked up)
chain: DRHTVFWNSSNPKFRNEDYTIHVQLNDYVDIICPHYEDHSVADAAMEQYILYLVEHEEYQLCQPQSKDQVRWQCNRPSAKHGPEKLSEKFQRFTPFTLGKEFKEGHSYYYISKPIHQHEDRCLRLKVTVSGKITHSPQAHDNPQEKRLAADDPEVRVLHSIGHS
notes: Ephrin A1; source: bought: R&D Systems (6417-A1)
  binding result: binds
